# Earlier results in patent publication US9737089B2, “Milk-based nutritional compositions containing lactoferrin and uses thereof” (Mead Johnson Nutrition Company, priority 2012, dated 2017).
# B1: human lactoferrin: iron-binding glycoprotein, one of the major multifunctional agents present in human milk (protein, UniProt P02788 20-710, looked up)
# Lactotransferrin: GRRRSVQWCAVSQPEATKCFQWQRNMRKVRGPPVSCIKRDSPIQCIQAIAENRADAVTLDGGFIYEAGLAPYKLRPVAAEVYGTERQPRTHYYAVAVVKKGGSFQLNELQGLKSCHTGLRRTAGWNVPIGTLRPFLNWTGPPEPIEAAVARFFSASCVPGADKGQFPNLCRLCAGTGENKCAFSSQEPYFSYSGAFKCLRDGAGDVAFIRESTVFEDLSDEAERDEYELLCPDNTRKPVDKFKDCHLARVPSHAVVARSVNGKEDAIWNLLRQAQEKFGKDKSPKFQLFGSPSGQKDLLFKDSAIGFSRVPPRIDSGLYLGSGYFTAIQNLRKSEEEVAARRARVVWCAVGEQELRKCNQWSGLSEGSVTCSSASTTEDCIALVLKGEADAMSLDGGYVYTAGKCGLVPVLAENYKSQQSSDPDPNCVDRPVEGYLAVAVVRRSDTSLTWNSVKGKKSCHTAVDRTAGWNIPMGLLFNQTGSCKFDEYFSQSCAPGSDPRSNLCALCIGDEQGENKCVPNSNERYYGYTGAFRCLAENAGDVAFVKDVTVLQNTDGNNNEAWAKDLKLADFALLCLDGKRKPVTEARSCHLAMAPNHAVVSRMDKVERLKQVLLHQQAKFGRNGSDCPDKFCLFQSETKNLLFNDNTECLARLHGKTTYEKYLGPQYVAGITNLKKCSTSPLLEACEFLRK
# System: EPEC adhesion to HeLa cells
# Conditions: Nascimento de Arujao et al., BMC Microbiol. 1:25 (2001)
molecule,measurement,value
B1,inhibition of adhesion of EPEC to HeLa cells,can inhibit the adhesion
